Measured values published in patent publication US20220160663A1 (SEOUL NATIONAL UNIVERSITY R AND DB FOUNDATION, published 2022).

Target: T1, Glut1 (accession number: NP_006507) WT, HA-tagged (UniProt P11166 1-492)
T1 construct: Expressed in THP-1 cells from a plasmid; Detected in the pull-down by anti-HA Western blot; also called WT Glut1; Glut-HA; not shown: HA tag
T1 sequence (looked up): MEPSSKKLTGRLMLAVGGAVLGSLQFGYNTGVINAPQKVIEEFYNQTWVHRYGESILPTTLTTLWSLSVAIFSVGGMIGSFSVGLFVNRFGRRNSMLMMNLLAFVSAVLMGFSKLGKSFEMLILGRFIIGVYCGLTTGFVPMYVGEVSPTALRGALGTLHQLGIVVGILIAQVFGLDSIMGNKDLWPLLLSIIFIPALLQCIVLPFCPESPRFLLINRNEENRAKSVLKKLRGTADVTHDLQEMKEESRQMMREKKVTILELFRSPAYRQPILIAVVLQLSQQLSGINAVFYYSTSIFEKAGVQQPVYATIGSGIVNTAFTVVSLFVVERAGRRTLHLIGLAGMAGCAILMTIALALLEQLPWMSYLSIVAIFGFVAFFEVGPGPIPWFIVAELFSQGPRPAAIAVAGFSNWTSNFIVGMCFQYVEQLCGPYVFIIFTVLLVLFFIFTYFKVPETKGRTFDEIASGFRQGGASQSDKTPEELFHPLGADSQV
Assay: Strep pull-down from THP-1 cell extract, anti-HA Western blot
Procedure: THP-1 cell line was transfected with expression plasmids for TM4SF5-Strep (control vector, WT, N-Glycosylation-deficient mutant; N138A/N155Q), Palmitoylation-deficient mutant (C2/6/9/75/76/80/81/85/189A), Glut1 (accession number: NP_006507) WT, Glut1 K38A, and Glut1 E329Q, and after 48 hours, cell extracts were obtained. The binding of TM4SF5 and Glut1 was confirmed by Western blotting of Glut-HA using an anti-HA antibody by pulling-down with strepavidin agarose resin (Thermo Fisher Scientific).

- binding result: no binding
B1: TM4SF5-Strep N-Glycosylation-deficient mutant N138A/N155Q (other, human, UniProt O14894 1-197, looked up)
chain: MCTGKCARCVGLSLITLCLVCIVANALLLVPNGETSWTNTNHLSLQVWLMGGFIGGGLMVLCPGIAAVRAGGKGCCGAGCCGNRCRMLRSVFSSAFGVLGAIYCLSVSGAGLRNGPRCLMNGEWGYHFEDTAGAYLLARTLWDRCEAPPRVVPWQVTLFSLLVAASCLEIVLCGIQLVNATIGVFCGDCRKKQDTPH
notes: Expressed in THP-1 cells and pulled down from the cell extract with streptavidin agarose; not shown: Strep tag
